Where two headings read alike, the source gives them in different places.

What all share (assay): two-hybrid
Experiment [1] addresses full-length T877A-AR (VP16 fusion) (human).
Experiment [2] concerns the target T1, full-length wt-AR (VP16 fusion) (human, UniProt P10275 1-920).
T1 sequence (looked up): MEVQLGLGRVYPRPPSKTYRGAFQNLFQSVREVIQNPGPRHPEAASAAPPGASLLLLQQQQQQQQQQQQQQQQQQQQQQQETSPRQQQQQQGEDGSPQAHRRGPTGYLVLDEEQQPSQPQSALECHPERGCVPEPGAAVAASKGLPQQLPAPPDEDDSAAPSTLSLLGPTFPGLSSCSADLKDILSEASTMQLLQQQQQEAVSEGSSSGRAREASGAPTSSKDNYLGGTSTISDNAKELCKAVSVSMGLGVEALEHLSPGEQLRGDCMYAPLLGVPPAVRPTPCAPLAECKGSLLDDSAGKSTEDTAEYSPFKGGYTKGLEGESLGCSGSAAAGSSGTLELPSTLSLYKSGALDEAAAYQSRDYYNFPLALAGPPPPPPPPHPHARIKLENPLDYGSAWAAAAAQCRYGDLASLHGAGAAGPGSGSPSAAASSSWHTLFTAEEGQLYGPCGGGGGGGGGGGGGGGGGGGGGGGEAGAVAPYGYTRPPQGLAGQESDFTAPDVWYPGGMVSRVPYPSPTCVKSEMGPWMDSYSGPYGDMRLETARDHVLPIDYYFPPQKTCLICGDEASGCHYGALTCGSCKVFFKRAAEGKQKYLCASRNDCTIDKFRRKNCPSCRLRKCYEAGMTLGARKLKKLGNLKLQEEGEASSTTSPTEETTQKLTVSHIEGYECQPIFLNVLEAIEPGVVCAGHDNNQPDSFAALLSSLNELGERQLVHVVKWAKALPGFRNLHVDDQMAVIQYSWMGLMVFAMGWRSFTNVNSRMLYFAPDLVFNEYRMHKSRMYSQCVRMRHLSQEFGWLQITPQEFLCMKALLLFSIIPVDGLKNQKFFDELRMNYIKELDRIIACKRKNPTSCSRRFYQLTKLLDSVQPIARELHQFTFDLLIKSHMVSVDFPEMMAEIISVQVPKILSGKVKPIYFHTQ

Experiment [3] addresses full-length T877A-AR (VP16 fusion) (human). The source holds these as a separate data set.

In the case of SKFSQLYSYEPP [B49 (Gal-4 fusion)], the two-hybrid reporter activity (Gal-4 = 1) in experiment [1] turned out to be 1030; in experiment [2], 1790; in experiment [3] it was 318.
Take SDSAFSRLYTRS [C320 (Gal-4 fusion)]: the results for the two-hybrid reporter activity (Gal-4 = 1) in experiment [1], in experiment [2] and in experiment [3] were 12700, 13400 and 4650, respectively.
Turning to ANSSFRDWYTSS [B46 (Gal-4 fusion)], the figures for the two-hybrid reporter activity (Gal-4 = 1) in experiment [1], in experiment [2] and in experiment [3] were 376, 792 and 1260, respectively.
As to NPRTPTTFERYY [B414 (Gal-4 fusion)], the “two-hybrid reporter activity (Gal-4 = 1)” value in experiment [2] is 18.
As to HKASPFNYYYLN [B311 (Gal-4 fusion)], the “two-hybrid reporter activity (Gal-4 = 1)” value in experiment [2] was 46.
Consider PAPKFKEFFYAE [A43 (Gal-4 fusion)], for which the two-hybrid reporter activity (Gal-4 = 1) in experiment [1] was determined as 7350; in experiment [2], 8840; in experiment [3], 8300.
The corresponding values for SPTPHFTRLFHY [B310 (Gal-4 fusion)] are 12100, 17800 and 6720.
The corresponding values for KTRYIFDLFYKRKAY [BUD31 peptide (Gal-4 fusion)] are 12000, 8940 and 4870.
Regarding SPFEEHYLSTQS [B34 (Gal-4 fusion)], the two-hybrid reporter activity (Gal-4 = 1) in experiment [1] was 37; in experiment [2], 42.
Turning to HASPFEMHYLLG [HF-26 (Gal-4 fusion)], the two-hybrid reporter activity (Gal-4 = 1) in experiment [1] was determined as 8400; in experiment [2], 8900; in experiment [3], 8900.
On to NTTDTLFSQHYR [B32 (Gal-4 fusion)], for which the “two-hybrid reporter activity (Gal-4 = 1)” value in experiment [2] was found to be 41.
For the molecule SPTRLFDHLYMT [B423 (Gal-4 fusion)], the two-hybrid reporter activity (Gal-4 = 1) was determined as 401 in experiment [1], 1220 in experiment [2] and 168 in experiment [3].
With HPTHSSRLWELLMEATPTM [D30 (Gal-4 fusion)], the two-hybrid reporter activity (Gal-4 = 1) stood at 18100 in experiment [1], 19900 in experiment [2] and 8800 in experiment [3].
On to DPPTSKFSTFYQ [A48 (Gal-4 fusion)], for which the “two-hybrid reporter activity (Gal-4 = 1)” value in experiment [2] amounted to 32.
As to HNTKFSTFYNMD [B37 (Gal-4 fusion)], the two-hybrid reporter activity (Gal-4 = 1) is 6240 in experiment [1], 9160 in experiment [2] and 8710 in experiment [3].
Take DSQYSSFSRYYK [A47 (Gal-4 fusion)]: the “two-hybrid reporter activity (Gal-4 = 1)” value in experiment [2] was found to be 21.
Consider VLPGSTFERFYR [A49 (Gal-4 fusion)], for which the two-hybrid reporter activity (Gal-4 = 1) in experiment [1] was 26; in experiment [2], 25.
STFESLYNNMTA [C33 (Gal-4 fusion)]: the two-hybrid reporter activity (Gal-4 = 1) is 1020 in experiment [1], 1330 in experiment [2] and 399 in experiment [3].
SHSSFYQYYLDN [A310 (Gal-4 fusion)]: the two-hybrid reporter activity (Gal-4 = 1) in experiment [1] amounted to 3590; in experiment [2], 4770; in experiment [3] it was 4460.
SFYDFYNGASTP [C41 (Gal-4 fusion)]: the “two-hybrid reporter activity (Gal-4 = 1)” value in experiment [2] is 23.
Regarding HPARTSFETHYM [B411 (Gal-4 fusion)], the “two-hybrid reporter activity (Gal-4 = 1)” value in experiment [2] was 13; in experiment [3], 16.
For the molecule TEPPAAFRQLFF [C317 (Gal-4 fusion)], the two-hybrid reporter activity (Gal-4 = 1) in experiment [1] was 5230; in experiment [2], 6600; in experiment [3] it was 4380.
The corresponding values for HTSMFESFFRKE [HF-15 (Gal-4 fusion)] are 13900, 11500 and 14500.
In the same order, the values of SSGGFERFYIAQ [A41 (Gal-4 fusion)] are 3060, 4310 and 3510.
On to NTNAFSRLFYPS [#3-18 (Gal-4 fusion)], for which the two-hybrid reporter activity (Gal-4 = 1) in experiment [1] amounted to 11000; in experiment [2], 12500.
For the molecule RGAFQNLFQSV [ARN20 (Gal-4 fusion)], the two-hybrid reporter activity (Gal-4 = 1) in experiment [1] came out at 1580; in experiment [2] it was 1310; in experiment [3], 1420.
For the molecule EASNSSFARLFH [B426 (Gal-4 fusion)], the two-hybrid reporter activity (Gal-4 = 1) stood at 9550 in experiment [1], 13500 in experiment [2] and 1510 in experiment [3].
The corresponding values for SSFADLWRNEAT [C314 (Gal-4 fusion)] are 859, 1140 and 121.
The corresponding values for NTPLFQTFYNQR [B45 (Gal-4 fusion)] are 12600, 18000 and 17200.

For the origin of these results see paper PMC4253602 (Molecular oncology, 2014).
